Measured values reported in IntAct's records for PubMed 21240272.

B1: G protein pathway suppressor 2 (Homo sapiens), Q13227 (parent)
chain: MPALLERPKLSNAMARALHRHIMMERERKRQEEEEVDKMMEQKMKEEQERRKKKEMEERMSLEETKEQILKLEEKLLALQEEKHQLFLQLKKVLHEEEKRRRKEQSDLTTLTSAAYQQSLTVHTGTHLLSMQGSPGGHNRPGTLMAADRAKQMFGPQVLTTRHYVGSAAAFAGTPEHGQFQGSPGGAYGTAQPPPHYGPTQPAYSPSQQLRAPSAFPAVQYLSQPQPQPYAVHGHFQPTQTGFLQPGGALSLQKQMEHANQQTGFSDSSSLRPMHPQALHPAPGLLASPQLPVQMQPAGKSGFAATSQPGPRLPFIQHSQNPRFYHK
partner: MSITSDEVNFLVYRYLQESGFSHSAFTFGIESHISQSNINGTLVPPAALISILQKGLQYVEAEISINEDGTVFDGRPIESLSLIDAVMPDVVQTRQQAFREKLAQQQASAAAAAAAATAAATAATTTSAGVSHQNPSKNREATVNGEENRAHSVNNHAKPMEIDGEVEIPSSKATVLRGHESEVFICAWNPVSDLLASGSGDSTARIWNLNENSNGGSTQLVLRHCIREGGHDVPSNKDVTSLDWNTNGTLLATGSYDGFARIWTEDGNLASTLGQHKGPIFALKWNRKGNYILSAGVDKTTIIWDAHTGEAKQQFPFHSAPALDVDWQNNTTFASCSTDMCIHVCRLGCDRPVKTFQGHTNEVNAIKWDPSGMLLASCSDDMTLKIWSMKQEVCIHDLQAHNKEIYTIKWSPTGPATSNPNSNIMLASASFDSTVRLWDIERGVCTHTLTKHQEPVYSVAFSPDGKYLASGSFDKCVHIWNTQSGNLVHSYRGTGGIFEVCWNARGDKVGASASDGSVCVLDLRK
B2: F-box-like/WD repeat-containing protein TBL1X (Homo sapiens), O60907-2 (parent)
chain: B1 partner

Variants of: B1
Conditions: with TBL1X

effect of a mutation on the interaction | Variant
disrupting interaction | MPALLERPKLSNAMARALAEHAMMERERKRQEEEEVDKMMEQKMKEEQERRKKKEMEERMSLEETKEQILKLEEKLLALQEEKHQLFLQLKKVLHEEEKRRRKEQSDLTTLTSAAYQQSLTVHTGTHLLSMQGSPGGHNRPGTLMAADRAKQMFGPQVLTTRHYVGSAAAFAGTPEHGQFQGSPGGAYGTAQPPPHYGPTQPAYSPSQQLRAPSAFPAVQYLSQPQPQPYAVHGHFQPTQTGFLQPGGALSLQKQMEHANQQTGFSDSSSLRPMHPQALHPAPGLLASPQLPVQMQPAGKSGFAATSQPGPRLPFIQHSQNPRFYHK [H19A;R20E;I22A]

Variants of: B2
Conditions: with ncor2_human NCOR2, Q9Y618
ncor2_human NCOR2, Q9Y618, sequence (Q9Y618 whole entry): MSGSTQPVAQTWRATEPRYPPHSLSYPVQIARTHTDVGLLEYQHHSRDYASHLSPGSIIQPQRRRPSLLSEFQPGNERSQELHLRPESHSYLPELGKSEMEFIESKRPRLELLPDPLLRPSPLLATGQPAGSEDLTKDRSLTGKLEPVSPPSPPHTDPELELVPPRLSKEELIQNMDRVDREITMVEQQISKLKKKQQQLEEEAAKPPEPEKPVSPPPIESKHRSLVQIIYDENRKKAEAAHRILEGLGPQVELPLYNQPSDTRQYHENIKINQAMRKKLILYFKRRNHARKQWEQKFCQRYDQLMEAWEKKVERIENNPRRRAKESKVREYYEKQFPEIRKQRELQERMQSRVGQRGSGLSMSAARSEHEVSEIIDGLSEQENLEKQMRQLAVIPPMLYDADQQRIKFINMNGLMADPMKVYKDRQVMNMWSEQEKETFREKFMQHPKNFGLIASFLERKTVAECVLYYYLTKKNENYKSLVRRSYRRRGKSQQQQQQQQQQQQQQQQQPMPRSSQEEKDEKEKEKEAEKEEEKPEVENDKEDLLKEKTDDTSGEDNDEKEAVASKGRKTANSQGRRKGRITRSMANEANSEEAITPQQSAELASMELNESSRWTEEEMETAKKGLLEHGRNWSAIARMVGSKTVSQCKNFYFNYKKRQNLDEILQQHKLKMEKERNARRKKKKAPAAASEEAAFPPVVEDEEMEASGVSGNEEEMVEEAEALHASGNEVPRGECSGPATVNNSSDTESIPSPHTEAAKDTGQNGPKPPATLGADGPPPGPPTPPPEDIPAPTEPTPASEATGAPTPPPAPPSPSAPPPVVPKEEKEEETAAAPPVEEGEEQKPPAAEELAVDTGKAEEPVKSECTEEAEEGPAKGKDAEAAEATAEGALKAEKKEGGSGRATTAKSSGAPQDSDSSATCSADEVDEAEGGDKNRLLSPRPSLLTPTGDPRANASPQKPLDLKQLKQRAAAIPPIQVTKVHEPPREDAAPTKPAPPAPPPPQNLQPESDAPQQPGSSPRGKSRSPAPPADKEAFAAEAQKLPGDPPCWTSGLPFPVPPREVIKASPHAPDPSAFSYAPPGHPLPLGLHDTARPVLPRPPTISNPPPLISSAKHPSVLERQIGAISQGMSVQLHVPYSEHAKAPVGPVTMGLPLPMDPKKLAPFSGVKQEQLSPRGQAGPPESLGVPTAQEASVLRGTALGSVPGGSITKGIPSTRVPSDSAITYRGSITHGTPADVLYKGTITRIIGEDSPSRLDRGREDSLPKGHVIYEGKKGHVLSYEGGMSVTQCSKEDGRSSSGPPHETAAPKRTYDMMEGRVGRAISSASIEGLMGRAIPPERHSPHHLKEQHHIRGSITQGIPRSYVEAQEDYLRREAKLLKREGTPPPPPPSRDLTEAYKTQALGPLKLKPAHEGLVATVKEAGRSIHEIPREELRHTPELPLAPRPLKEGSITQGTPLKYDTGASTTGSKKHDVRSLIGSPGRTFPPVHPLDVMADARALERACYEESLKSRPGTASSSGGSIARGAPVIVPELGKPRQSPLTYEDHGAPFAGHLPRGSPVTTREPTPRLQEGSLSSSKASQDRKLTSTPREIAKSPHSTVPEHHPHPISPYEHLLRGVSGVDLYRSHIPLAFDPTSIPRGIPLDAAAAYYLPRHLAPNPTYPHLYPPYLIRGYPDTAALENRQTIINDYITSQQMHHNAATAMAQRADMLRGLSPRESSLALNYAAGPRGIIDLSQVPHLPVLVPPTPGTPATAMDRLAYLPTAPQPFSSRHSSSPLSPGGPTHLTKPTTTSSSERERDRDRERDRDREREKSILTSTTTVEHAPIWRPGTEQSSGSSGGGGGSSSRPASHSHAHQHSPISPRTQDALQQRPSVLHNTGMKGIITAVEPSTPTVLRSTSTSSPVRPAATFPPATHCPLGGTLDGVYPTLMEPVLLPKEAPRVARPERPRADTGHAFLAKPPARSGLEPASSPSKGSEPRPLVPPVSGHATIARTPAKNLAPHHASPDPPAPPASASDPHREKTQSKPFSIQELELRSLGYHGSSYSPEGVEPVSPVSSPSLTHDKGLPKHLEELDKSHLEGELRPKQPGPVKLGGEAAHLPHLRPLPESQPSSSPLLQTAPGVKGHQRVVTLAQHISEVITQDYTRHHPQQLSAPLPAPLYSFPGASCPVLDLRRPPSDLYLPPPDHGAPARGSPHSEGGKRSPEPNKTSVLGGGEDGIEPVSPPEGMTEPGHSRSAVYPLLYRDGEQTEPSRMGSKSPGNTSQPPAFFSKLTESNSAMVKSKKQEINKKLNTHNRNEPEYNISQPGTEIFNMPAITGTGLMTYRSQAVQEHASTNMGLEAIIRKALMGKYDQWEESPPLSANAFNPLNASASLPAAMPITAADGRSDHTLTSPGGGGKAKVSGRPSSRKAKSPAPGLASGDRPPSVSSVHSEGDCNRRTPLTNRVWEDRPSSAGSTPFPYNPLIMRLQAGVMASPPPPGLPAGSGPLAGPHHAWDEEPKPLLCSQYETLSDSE

Variant | effect of a mutation on the interaction
MSITSDEVNFLVYRYLQESGFSHSAFTFGIESHISQSNANGTLVPPAALISILQKGLQYVEAEISINEDGTVFDGRPIESLSLIDAVMPDVVQTRQQAFREKLAQQQASAAAAAAAATAAATAATTTSAGVSHQNPSKNREATVNGEENRAHSVNNHAKPMEIDGEVEIPSSKATVLRGHESEVFICAWNPVSDLLASGSGDSTARIWNLNENSNGGSTQLVLRHCIREGGHDVPSNKDVTSLDWNTNGTLLATGSYDGFARIWTEDGNLASTLGQHKGPIFALKWNRKGNYILSAGVDKTTIIWDAHTGEAKQQFPFHSAPALDVDWQNNTTFASCSTDMCIHVCRLGCDRPVKTFQGHTNEVNAIKWDPSGMLLASCSDDMTLKIWSMKQEVCIHDLQAHNKEIYTIKWSPTGPATSNPNSNIMLASASFDSTVRLWDIERGVCTHTLTKHQEPVYSVAFSPDGKYLASGSFDKCVHIWNTQSGNLVHSYRGTGGIFEVCWNARGDKVGASASDGSVCVLDLRK [I39A] | decreasing interaction
MSITSDEVNFLVYRYLQESGFSHSAFTFGIESHISQSNINGTLVGPAALISILQKGLQYVEAEISINEDGTVFDGRPIESLSLIDAVMPDVVQTRQQAFREKLAQQQASAAAAAAAATAAATAATTTSAGVSHQNPSKNREATVNGEENRAHSVNNHAKPMEIDGEVEIPSSKATVLRGHESEVFICAWNPVSDLLASGSGDSTARIWNLNENSNGGSTQLVLRHCIREGGHDVPSNKDVTSLDWNTNGTLLATGSYDGFARIWTEDGNLASTLGQHKGPIFALKWNRKGNYILSAGVDKTTIIWDAHTGEAKQQFPFHSAPALDVDWQNNTTFASCSTDMCIHVCRLGCDRPVKTFQGHTNEVNAIKWDPSGMLLASCSDDMTLKIWSMKQEVCIHDLQAHNKEIYTIKWSPTGPATSNPNSNIMLASASFDSTVRLWDIERGVCTHTLTKHQEPVYSVAFSPDGKYLASGSFDKCVHIWNTQSGNLVHSYRGTGGIFEVCWNARGDKVGASASDGSVCVLDLRK [P45G] | decreasing interaction
MSITSDEVNFLVYRYLQESGFSHSAFTFGIESHISQSNINGTLVPPAALISILQKGAQYVEAEISINEDGTVFDGRPIESLSLIDAVMPDVVQTRQQAFREKLAQQQASAAAAAAAATAAATAATTTSAGVSHQNPSKNREATVNGEENRAHSVNNHAKPMEIDGEVEIPSSKATVLRGHESEVFICAWNPVSDLLASGSGDSTARIWNLNENSNGGSTQLVLRHCIREGGHDVPSNKDVTSLDWNTNGTLLATGSYDGFARIWTEDGNLASTLGQHKGPIFALKWNRKGNYILSAGVDKTTIIWDAHTGEAKQQFPFHSAPALDVDWQNNTTFASCSTDMCIHVCRLGCDRPVKTFQGHTNEVNAIKWDPSGMLLASCSDDMTLKIWSMKQEVCIHDLQAHNKEIYTIKWSPTGPATSNPNSNIMLASASFDSTVRLWDIERGVCTHTLTKHQEPVYSVAFSPDGKYLASGSFDKCVHIWNTQSGNLVHSYRGTGGIFEVCWNARGDKVGASASDGSVCVLDLRK [L57A] | decreasing interaction strength

Results, then the variant that gave them:

effect of a mutation on the interaction | Variant
disrupting interaction | MSITSDEVNFLVYRYLQESGFSHSAFTFGIESHISQSNINGTLVPPAALISILQKGLQYNEAEISINEDGTVFDGRPIESLSLIDAVMPDVVQTRQQAFREKLAQQQASAAAAAAAATAAATAATTTSAGVSHQNPSKNREATVNGEENRAHSVNNHAKPMEIDGEVEIPSSKATVLRGHESEVFICAWNPVSDLLASGSGDSTARIWNLNENSNGGSTQLVLRHCIREGGHDVPSNKDVTSLDWNTNGTLLATGSYDGFARIWTEDGNLASTLGQHKGPIFALKWNRKGNYILSAGVDKTTIIWDAHTGEAKQQFPFHSAPALDVDWQNNTTFASCSTDMCIHVCRLGCDRPVKTFQGHTNEVNAIKWDPSGMLLASCSDDMTLKIWSMKQEVCIHDLQAHNKEIYTIKWSPTGPATSNPNSNIMLASASFDSTVRLWDIERGVCTHTLTKHQEPVYSVAFSPDGKYLASGSFDKCVHIWNTQSGNLVHSYRGTGGIFEVCWNARGDKVGASASDGSVCVLDLRK [V60N]
decreasing interaction strength | MSITSDEVNFLVYRYLQESGFSHSAFTFGIESHISQSNINGTLVPPAALISILQKGQQYVEAEISINEDGTVFDGRPIESLSLIDAVMPDVVQTRQQAFREKLAQQQASAAAAAAAATAAATAATTTSAGVSHQNPSKNREATVNGEENRAHSVNNHAKPMEIDGEVEIPSSKATVLRGHESEVFICAWNPVSDLLASGSGDSTARIWNLNENSNGGSTQLVLRHCIREGGHDVPSNKDVTSLDWNTNGTLLATGSYDGFARIWTEDGNLASTLGQHKGPIFALKWNRKGNYILSAGVDKTTIIWDAHTGEAKQQFPFHSAPALDVDWQNNTTFASCSTDMCIHVCRLGCDRPVKTFQGHTNEVNAIKWDPSGMLLASCSDDMTLKIWSMKQEVCIHDLQAHNKEIYTIKWSPTGPATSNPNSNIMLASASFDSTVRLWDIERGVCTHTLTKHQEPVYSVAFSPDGKYLASGSFDKCVHIWNTQSGNLVHSYRGTGGIFEVCWNARGDKVGASASDGSVCVLDLRK [L57Q]

Variants of: B2
Conditions: with gps2_human GPS2, Q13227

effect of a mutation on the interaction | Variant
disrupting interaction | MSITSDEVNFLVYRYLQESGFSHSAFTFGIESHISQSNINGTLVPPAALISILQKGLQYNEAEISINEDGTVFDGRPIESLSLIDAVMPDVVQTRQQAFREKLAQQQASAAAAAAAATAAATAATTTSAGVSHQNPSKNREATVNGEENRAHSVNNHAKPMEIDGEVEIPSSKATVLRGHESEVFICAWNPVSDLLASGSGDSTARIWNLNENSNGGSTQLVLRHCIREGGHDVPSNKDVTSLDWNTNGTLLATGSYDGFARIWTEDGNLASTLGQHKGPIFALKWNRKGNYILSAGVDKTTIIWDAHTGEAKQQFPFHSAPALDVDWQNNTTFASCSTDMCIHVCRLGCDRPVKTFQGHTNEVNAIKWDPSGMLLASCSDDMTLKIWSMKQEVCIHDLQAHNKEIYTIKWSPTGPATSNPNSNIMLASASFDSTVRLWDIERGVCTHTLTKHQEPVYSVAFSPDGKYLASGSFDKCVHIWNTQSGNLVHSYRGTGGIFEVCWNARGDKVGASASDGSVCVLDLRK [V60N]
decreasing interaction strength | MSITSDEVNFLVYRYLQESGFSHSAFTFGIESHISQSNINGTLVPPAALISILQKGQQYVEAEISINEDGTVFDGRPIESLSLIDAVMPDVVQTRQQAFREKLAQQQASAAAAAAAATAAATAATTTSAGVSHQNPSKNREATVNGEENRAHSVNNHAKPMEIDGEVEIPSSKATVLRGHESEVFICAWNPVSDLLASGSGDSTARIWNLNENSNGGSTQLVLRHCIREGGHDVPSNKDVTSLDWNTNGTLLATGSYDGFARIWTEDGNLASTLGQHKGPIFALKWNRKGNYILSAGVDKTTIIWDAHTGEAKQQFPFHSAPALDVDWQNNTTFASCSTDMCIHVCRLGCDRPVKTFQGHTNEVNAIKWDPSGMLLASCSDDMTLKIWSMKQEVCIHDLQAHNKEIYTIKWSPTGPATSNPNSNIMLASASFDSTVRLWDIERGVCTHTLTKHQEPVYSVAFSPDGKYLASGSFDKCVHIWNTQSGNLVHSYRGTGGIFEVCWNARGDKVGASASDGSVCVLDLRK [L57Q]
decreasing interaction strength | MSITSDEVNFLVYRYLQESGFSHSAFTFGIESHISQSNINGTLVPPAALISILQKGAQYVEAEISINEDGTVFDGRPIESLSLIDAVMPDVVQTRQQAFREKLAQQQASAAAAAAAATAAATAATTTSAGVSHQNPSKNREATVNGEENRAHSVNNHAKPMEIDGEVEIPSSKATVLRGHESEVFICAWNPVSDLLASGSGDSTARIWNLNENSNGGSTQLVLRHCIREGGHDVPSNKDVTSLDWNTNGTLLATGSYDGFARIWTEDGNLASTLGQHKGPIFALKWNRKGNYILSAGVDKTTIIWDAHTGEAKQQFPFHSAPALDVDWQNNTTFASCSTDMCIHVCRLGCDRPVKTFQGHTNEVNAIKWDPSGMLLASCSDDMTLKIWSMKQEVCIHDLQAHNKEIYTIKWSPTGPATSNPNSNIMLASASFDSTVRLWDIERGVCTHTLTKHQEPVYSVAFSPDGKYLASGSFDKCVHIWNTQSGNLVHSYRGTGGIFEVCWNARGDKVGASASDGSVCVLDLRK [L57A]
